± gives the standard error. For part of these data: Fewer inactive variants are shown than the library holds.
B1: glmS ribozyme (parent)
chain: AUAAAAGCGCCAGAACUACAGAAAUGUAGUUGACGAGGAGGAGGUUUAUCGAAUUUUCGGCGGAUGCCUCCAAA

Key:
Conditions in all cases: with glucosamine-6-phosphate
glucosamine-6-phosphate [1] = variants of: B1; test: kcat; higher = faster cleavage; RNA array
Summary of the method: (§1)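 Ribozyme variants carrying barcodes were transcribed in situ on sequenced MiSeq chips by E. coli RNA polymerase and tracked at 37 °C with a hybridised Cy3 probe. They were exposed to 40 μM to 10 mM glucosamine-6-phosphate in HEPES/KCl/Mg(OAc)2 buffer. kobs came from exponential decay fits of normalised per-tile medians, and kcat and KM from weighted Michaelis–Menten fits.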

glucosamine-6-phosphate [2] = variants of: B1; test: KM; higher = weaker cofactor use; RNA array
Summary of the method: as §1

glucosamine-6-phosphate [3] = variants of: B1; test: self-cleavage kobs at 40 uM GlcN6P; higher = faster cleavage; RNA array
Summary of the method: as §1

glucosamine-6-phosphate [4] = variants of: B1; test: self-cleavage kobs at 160 uM GlcN6P; higher = faster cleavage; RNA array
Summary of the method: as §1

glucosamine-6-phosphate [5] = variants of: B1; test: self-cleavage kobs at 640 uM GlcN6P; higher = faster cleavage; RNA array
Summary of the method: as §1

glucosamine-6-phosphate [6] = variants of: B1; test: self-cleavage kobs at 2500 uM GlcN6P; higher = faster cleavage; RNA array
Summary of the method: as §1

glucosamine-6-phosphate [7] = variants of: B1; test: self-cleavage kobs at 10000 uM GlcN6P; higher = faster cleavage; RNA array
Summary of the method: as §1

G40C C70U
kcat (glucosamine-6-phosphate [1]): 0.000498 ± 0.00011 s⁻¹
KM (glucosamine-6-phosphate [2]): 512 ± 240 µM
self-cleavage kobs at 40 uM GlcN6P (glucosamine-6-phosphate [3]): 4.61e-05 ± 9e-06 s⁻¹
self-cleavage kobs at 160 uM GlcN6P (glucosamine-6-phosphate [4]): 0.000155 ± 3.2e-05 s⁻¹
self-cleavage kobs at 640 uM GlcN6P (glucosamine-6-phosphate [5]): 0.0002 ± 3.4e-05 s⁻¹
self-cleavage kobs at 2500 uM GlcN6P (glucosamine-6-phosphate [6]): 0.000428 ± 9.7e-05 s⁻¹
self-cleavage kobs at 10000 uM GlcN6P (glucosamine-6-phosphate [7]): 0.000555 ± 6.8e-05 s⁻¹

C50G C61G
kcat (glucosamine-6-phosphate [1]): 0.000119 ± 1.7e-05 s⁻¹
self-cleavage kobs at 40 uM GlcN6P (glucosamine-6-phosphate [3]): 8.54e-05 ± 1.1e-05 s⁻¹
self-cleavage kobs at 160 uM GlcN6P (glucosamine-6-phosphate [4]): 0.000156 ± 1.9e-05 s⁻¹
self-cleavage kobs at 640 uM GlcN6P (glucosamine-6-phosphate [5]): 0.000115 ± 1.6e-05 s⁻¹
self-cleavage kobs at 2500 uM GlcN6P (glucosamine-6-phosphate [6]): 0.000161 ± 2e-05 s⁻¹
self-cleavage kobs at 10000 uM GlcN6P (glucosamine-6-phosphate [7]): 9.9e-05 ± 1e-05 s⁻¹

U56A C68G
kcat (glucosamine-6-phosphate [1]): 7.31e-05 ± 8.9e-06 s⁻¹
self-cleavage kobs at 160 uM GlcN6P (glucosamine-6-phosphate [4]): 6.33e-05 ± 1.2e-05 s⁻¹
self-cleavage kobs at 640 uM GlcN6P (glucosamine-6-phosphate [5]): 0.00011 ± 1.5e-05 s⁻¹
self-cleavage kobs at 2500 uM GlcN6P (glucosamine-6-phosphate [6]): 6.61e-05 ± 7.6e-06 s⁻¹
self-cleavage kobs at 10000 uM GlcN6P (glucosamine-6-phosphate [7]): 6.94e-05 ± 7.3e-06 s⁻¹

A53C U56A
kcat (glucosamine-6-phosphate [1]): 0.00313 ± 0.00063 s⁻¹
KM (glucosamine-6-phosphate [2]): 2700 ± 730 µM
self-cleavage kobs at 40 uM GlcN6P (glucosamine-6-phosphate [3]): 4.81e-05 ± 7e-06 s⁻¹
self-cleavage kobs at 160 uM GlcN6P (glucosamine-6-phosphate [4]): 0.000205 ± 3.7e-05 s⁻¹
self-cleavage kobs at 640 uM GlcN6P (glucosamine-6-phosphate [5]): 0.000467 ± 9.1e-05 s⁻¹
self-cleavage kobs at 2500 uM GlcN6P (glucosamine-6-phosphate [6]): 0.00171 ± 0.00027 s⁻¹
self-cleavage kobs at 10000 uM GlcN6P (glucosamine-6-phosphate [7]): 0.00243 ± 0.00038 s⁻¹

G37A C50A
kcat (glucosamine-6-phosphate [1]): 1.38e-05 ± 4.6e-06 s⁻¹

A39U C70A
kcat (glucosamine-6-phosphate [1]): 0.000394 ± 9.4e-05 s⁻¹
KM (glucosamine-6-phosphate [2]): 558 ± 250 µM
self-cleavage kobs at 40 uM GlcN6P (glucosamine-6-phosphate [3]): 5.15e-05 ± 9.3e-06 s⁻¹
self-cleavage kobs at 160 uM GlcN6P (glucosamine-6-phosphate [4]): 7.96e-05 ± 1.2e-05 s⁻¹
self-cleavage kobs at 640 uM GlcN6P (glucosamine-6-phosphate [5]): 0.000187 ± 2.3e-05 s⁻¹
self-cleavage kobs at 2500 uM GlcN6P (glucosamine-6-phosphate [6]): 0.000403 ± 6.9e-05 s⁻¹
self-cleavage kobs at 10000 uM GlcN6P (glucosamine-6-phosphate [7]): 0.000382 ± 5.4e-05 s⁻¹

A48C U56G
kcat (glucosamine-6-phosphate [1]): 0.000214 ± 2.7e-05 s⁻¹
KM (glucosamine-6-phosphate [2]): 5570 ± 1300 µM
self-cleavage kobs at 2500 uM GlcN6P (glucosamine-6-phosphate [6]): 6.9e-05 ± 1.3e-05 s⁻¹
self-cleavage kobs at 10000 uM GlcN6P (glucosamine-6-phosphate [7]): 0.000135 ± 2.8e-05 s⁻¹

A48C U56A
kcat (glucosamine-6-phosphate [1]): 0.000146 ± 3.6e-05 s⁻¹
self-cleavage kobs at 2500 uM GlcN6P (glucosamine-6-phosphate [6]): 7.8e-05 ± 1.6e-05 s⁻¹
self-cleavage kobs at 10000 uM GlcN6P (glucosamine-6-phosphate [7]): 0.000107 ± 1.7e-05 s⁻¹

A12G G59U
kcat (glucosamine-6-phosphate [1]): 1e-05 ± 1.9e-06 s⁻¹

C50U A53G
kcat (glucosamine-6-phosphate [1]): 6.82e-05 ± 1.3e-06 s⁻¹
KM (glucosamine-6-phosphate [2]): 642 ± 54 µM
self-cleavage kobs at 640 uM GlcN6P (glucosamine-6-phosphate [5]): 3.45e-05 ± 1.6e-05 s⁻¹
self-cleavage kobs at 2500 uM GlcN6P (glucosamine-6-phosphate [6]): 5.41e-05 ± 1.5e-05 s⁻¹
self-cleavage kobs at 10000 uM GlcN6P (glucosamine-6-phosphate [7]): 6.42e-05 ± 1.5e-05 s⁻¹

C16G A52U
kcat (glucosamine-6-phosphate [1]): 0.00015 ± 2.4e-05 s⁻¹
KM (glucosamine-6-phosphate [2]): 7790 ± 2700 µM
self-cleavage kobs at 10000 uM GlcN6P (glucosamine-6-phosphate [7]): 8.41e-05 ± 1.5e-05 s⁻¹

G13C U55G
kcat (glucosamine-6-phosphate [1]): 0.000125 ± 2.7e-05 s⁻¹
self-cleavage kobs at 2500 uM GlcN6P (glucosamine-6-phosphate [6]): 6.8e-05 ± 9.4e-06 s⁻¹
self-cleavage kobs at 10000 uM GlcN6P (glucosamine-6-phosphate [7]): 9.6e-05 ± 1.2e-05 s⁻¹

G41U A53U
kcat (glucosamine-6-phosphate [1]): 0.00104 ± 0.00026 s⁻¹
KM (glucosamine-6-phosphate [2]): 889 ± 390 µM
self-cleavage kobs at 40 uM GlcN6P (glucosamine-6-phosphate [3]): 9.28e-05 ± 2e-05 s⁻¹
self-cleavage kobs at 160 uM GlcN6P (glucosamine-6-phosphate [4]): 0.000145 ± 2.2e-05 s⁻¹
self-cleavage kobs at 640 uM GlcN6P (glucosamine-6-phosphate [5]): 0.000413 ± 8.1e-05 s⁻¹
self-cleavage kobs at 2500 uM GlcN6P (glucosamine-6-phosphate [6]): 0.000697 ± 0.0001 s⁻¹
self-cleavage kobs at 10000 uM GlcN6P (glucosamine-6-phosphate [7]): 0.00119 ± 0.00021 s⁻¹

U45C C67G
kcat (glucosamine-6-phosphate [1]): 0.0224 ± 0.0058 s⁻¹
KM (glucosamine-6-phosphate [2]): 5680 ± 1800 µM
self-cleavage kobs at 40 uM GlcN6P (glucosamine-6-phosphate [3]): 0.000175 ± 3.4e-05 s⁻¹
self-cleavage kobs at 160 uM GlcN6P (glucosamine-6-phosphate [4]): 0.000503 ± 0.00012 s⁻¹
self-cleavage kobs at 640 uM GlcN6P (glucosamine-6-phosphate [5]): 0.00339 ± 0.0011 s⁻¹
self-cleavage kobs at 2500 uM GlcN6P (glucosamine-6-phosphate [6]): 0.00755 ± 0.0031 s⁻¹
self-cleavage kobs at 10000 uM GlcN6P (glucosamine-6-phosphate [7]): 0.0141 ± 0.0026 s⁻¹

C50G A64U
kcat (glucosamine-6-phosphate [1]): 5.29e-05 ± 1.7e-05 s⁻¹
self-cleavage kobs at 160 uM GlcN6P (glucosamine-6-phosphate [4]): 6.24e-05 ± 1.5e-05 s⁻¹
self-cleavage kobs at 640 uM GlcN6P (glucosamine-6-phosphate [5]): 9.1e-05 ± 2.3e-05 s⁻¹
self-cleavage kobs at 2500 uM GlcN6P (glucosamine-6-phosphate [6]): 5.11e-05 ± 1.7e-05 s⁻¹

U45A A64U
kcat (glucosamine-6-phosphate [1]): 0.000543 ± 3.2e-05 s⁻¹
KM (glucosamine-6-phosphate [2]): 2140 ± 230 µM
self-cleavage kobs at 640 uM GlcN6P (glucosamine-6-phosphate [5]): 0.00013 ± 2.1e-05 s⁻¹
self-cleavage kobs at 2500 uM GlcN6P (glucosamine-6-phosphate [6]): 0.00029 ± 4.4e-05 s⁻¹
self-cleavage kobs at 10000 uM GlcN6P (glucosamine-6-phosphate [7]): 0.000447 ± 7.9e-05 s⁻¹
